Assay results taken from paper PMC2951910, “Signal Transduction Protein Array Analysis Links LRRK2 to Ste20 Kinases and PKC Zeta That Modulate Neuronal Plasticity” (PLoS ONE, 2010).

Tests used:
[1] = molecular target: T1, kinase-inactive GST-tagged LRRK2(D1994A) (970-2527) (human, UniProt Q5S007 970-2527, D1994A); assay: peptide or protein array; BCCP-tagged full-length human proteins held on streptavidin-coated slides, pre-incubated with 100 uM cold ATP; overlaid with 130 nM GST-LRRK2 (G2019S or D1994A) with 10 uM ATP and [gamma-33P]ATP for 1 h at 30 C; washed in 0.5% SDS; radioactive signal on the spots read on phosphoscreens; buffer only as control; details: both partners purified
T1 construct: also called kinase-dead LRRK2(D1994A); source: bought: Invitrogen

[2] = molecular target: T2, GST-tagged LRRK2(G2019S) (amino acids 970-2527) (human, UniProt Q5S007 970-2527, G2019S, autophosphorylated (10 uM cold ATP, 1 h, 30 C) before the binding arrays; sites not stated); assay: peptide or protein array; BCCP-tagged full-length human proteins held on streptavidin-coated slides; overlaid with autophosphorylated GST-LRRK2(G2019S) (970-2527) or recombinant GST with cold ATP for 1 h at 30 C; washed in buffer with 0.5% SDS; detected with an Alexa 488-conjugated anti-GST antibody; details: both partners purified
T2 construct: leucine-rich repeat kinase 2 (LRRK2), human, amino acids 970-2527, with the Parkinson's disease-linked mutation G2019S; In the 33P arrays the kinase was not autophosphorylated beforehand, but ATP was present during the incubation; also called recombinant LRRK2(G2019S); leucine-rich repeat kinase 2; source: bought: Invitrogen; not shown: GST, N-terminal, kept
T2 sequence (Q5S007 970-2527 G2019S): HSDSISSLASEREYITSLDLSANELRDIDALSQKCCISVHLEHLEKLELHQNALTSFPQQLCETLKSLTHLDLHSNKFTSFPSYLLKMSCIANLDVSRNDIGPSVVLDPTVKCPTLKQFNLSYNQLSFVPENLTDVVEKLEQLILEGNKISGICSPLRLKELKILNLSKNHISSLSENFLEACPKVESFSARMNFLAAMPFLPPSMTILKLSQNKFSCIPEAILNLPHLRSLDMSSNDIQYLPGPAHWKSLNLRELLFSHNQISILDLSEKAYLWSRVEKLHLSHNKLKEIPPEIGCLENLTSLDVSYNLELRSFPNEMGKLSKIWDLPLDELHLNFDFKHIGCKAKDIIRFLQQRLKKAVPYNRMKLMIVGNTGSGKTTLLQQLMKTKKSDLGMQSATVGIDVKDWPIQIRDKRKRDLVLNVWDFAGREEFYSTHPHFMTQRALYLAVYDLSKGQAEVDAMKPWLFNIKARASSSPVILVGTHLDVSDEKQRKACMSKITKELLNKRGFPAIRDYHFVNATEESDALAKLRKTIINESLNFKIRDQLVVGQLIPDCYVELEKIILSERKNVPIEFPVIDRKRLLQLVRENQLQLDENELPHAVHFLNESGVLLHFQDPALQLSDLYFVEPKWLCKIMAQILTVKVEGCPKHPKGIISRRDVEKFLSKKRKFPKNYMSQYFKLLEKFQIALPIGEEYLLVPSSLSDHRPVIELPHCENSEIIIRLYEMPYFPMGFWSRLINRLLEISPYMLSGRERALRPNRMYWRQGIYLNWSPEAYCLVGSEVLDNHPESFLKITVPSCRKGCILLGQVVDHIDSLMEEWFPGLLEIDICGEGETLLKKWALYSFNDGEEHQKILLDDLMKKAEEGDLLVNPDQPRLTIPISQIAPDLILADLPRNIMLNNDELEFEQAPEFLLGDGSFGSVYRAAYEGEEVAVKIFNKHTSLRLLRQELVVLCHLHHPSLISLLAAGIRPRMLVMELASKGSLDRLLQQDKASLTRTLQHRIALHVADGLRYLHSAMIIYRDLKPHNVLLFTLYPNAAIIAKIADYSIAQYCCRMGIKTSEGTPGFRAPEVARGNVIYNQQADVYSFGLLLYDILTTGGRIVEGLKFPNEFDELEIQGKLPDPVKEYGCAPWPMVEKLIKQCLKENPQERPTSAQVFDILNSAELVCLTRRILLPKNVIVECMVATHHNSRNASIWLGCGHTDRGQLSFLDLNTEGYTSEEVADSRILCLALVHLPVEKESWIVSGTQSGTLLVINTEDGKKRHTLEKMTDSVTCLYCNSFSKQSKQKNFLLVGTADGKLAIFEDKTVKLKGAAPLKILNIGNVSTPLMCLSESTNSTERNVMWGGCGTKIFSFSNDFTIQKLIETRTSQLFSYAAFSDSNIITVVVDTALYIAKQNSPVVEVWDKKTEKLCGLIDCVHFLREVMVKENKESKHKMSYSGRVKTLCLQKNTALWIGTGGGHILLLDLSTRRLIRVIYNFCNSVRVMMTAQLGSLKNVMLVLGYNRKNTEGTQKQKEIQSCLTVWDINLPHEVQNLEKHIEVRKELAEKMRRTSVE

T1 sequence (Q5S007 970-2527 D1994A): as the sequence (Q5S007 970-2527 G2019S) above, with D1025A, S1050G counted along it

Row | binding result [1] | binding result [2] | Binder
1 | binds | binds | Protein kinase C, zeta (PRKCZ), arrayed (enzyme, human, UniProt Q05513 1-592, looked up, biotin on the biotin-carboxyl carrier protein tag, protein kinase C zeta (PRKCZ), human, full length, spotted on the array; Held on streptavidin-coated glass slides by the biotinylated tag; also called PKC zeta; source: bought: Sigma Panorama Human Protein Function Array - Signal Transduction; expressed in insect cells) MPSRTGPKMEGSGGRVRLKAHYGGDIFITSVDAATTFEELCEEVRDMCRLHQQHPLTLKWVDSEGDPCTVSSQMELEEAFRLARQCRDEGLIIHVFPSTPEQPGLPCPGEDKSIYRRGARRWRKLYRANGHLFQAKRFNRRAYCGQCSERIWGLARQGYRCINCKLLVHKRCHGLVPLTCRKHMDSVMPSQEPPVDDKNEDADLPSEETDGIAYISSSRKHDSIKDDSEDLKPVIDGMDGIKISQGLGLQDFDLIRVIGRGSYAKVLLVRLKKNDQIYAMKVVKKELVHDDEDIDWVQTEKHVFEQASSNPFLVGLHSCFQTTSRLFLVIEYVNGGDLMFHMQRQRKLPEEHARFYAAEICIALNFLHERGIIYRDLKLDNVLLDADGHIKLTDYGMCKEGLGPGDTTSTFCGTPNYIAPEILRGEEYGFSVDWWALGVLMFEMMAGRSPFDIITDNPDMNTEDYLFQVILEKPIRIPRFLSVKASHVLKGFLNKDPKERLGCRPQTGFSDIKSHAFFRSIDWDLLEKKQALPPFQPQITDDYGLDNFDTQFTSEPVQLTPDDEDAIKRIDQSEFEGFEYINPLLLSTEESV
2 | – | binds | Serine/threonine kinase 25 (STE20 homolog, yeast) (STK25), arrayed (enzyme, biotin on the biotin-carboxyl carrier protein tag, serine/threonine kinase 25 (STK25), human, full length, spotted on the array; Held on streptavidin-coated glass slides by the biotinylated tag; The array was pre-incubated with 100 uM cold ATP in the substrate arrays; source: bought: Sigma Panorama Human Protein Function Array - Signal Transduction; expressed in insect cells) not shown
3 | – | binds | TNF receptor-associated factor 2, transcript variant 1 (TRAF2), arrayed (natural protein, human, UniProt Q12933 1-501, looked up, biotin on the biotin-carboxyl carrier protein tag, TNF receptor-associated factor 2 (TRAF2), human, full length, spotted on the array; Held on streptavidin-coated glass slides by the biotinylated tag; also called tumor necrosis factor receptor-associated factor 2; source: bought: Sigma Panorama Human Protein Function Array - Signal Transduction; expressed in insect cells) MAAASVTPPGSLELLQPGFSKTLLGTKLEAKYLCSACRNVLRRPFQAQCGHRYCSFCLASILSSGPQNCAACVHEGIYEEGISILESSSAFPDNAARREVESLPAVCPSDGCTWKGTLKEYESCHEGRCPLMLTECPACKGLVRLGEKERHLEHECPERSLSCRHCRAPCCGADVKAHHEVCPKFPLTCDGCGKKKIPREKFQDHVKTCGKCRVPCRFHAIGCLETVEGEKQQEHEVQWLREHLAMLLSSVLEAKPLLGDQSHAGSELLQRCESLEKKTATFENIVCVLNREVERVAMTAEACSRQHRLDQDKIEALSSKVQQLERSIGLKDLAMADLEQKVLEMEASTYDGVFIWKISDFARKRQEAVAGRIPAIFSPAFYTSRYGYKMCLRIYLNGDGTGRGTHLSLFFVVMKGPNDALLRWPFNQKVTLMLLDQNNREHVIDAFRPDVTSSSFQRPVNDMNIASGCPLFCPVSKMEAKNSYVRDDAIFIKAIVDLTGL
